Among the data in US20110318339A1 (FABRUS, published 2011) are ECL signal values, retold here.

Experiment [1] deals with T1, rHuman ErbB2/Fc Chimera, CF (Cat# 1129-ER) (human, UniProt P04626 23-652).
T1 construct: Bought from R&D Systems; also called human epidermal growth factor 2 receptor (ErbB2)
Briefly: Multispot ECL; Fab 32.5 nM. Here is the method: (§1) An 150 μl aliquot of 1% Bovine Serum Albumin (BSA) in Tris-buffered Saline Tween (TBST) was added to each well and allowed to incubate for 30 min at 20° C. followed by washing and tap drying to completely remove any residual solution. Subsequently, a 12.5 μl aliquot of 1% BSA TBST was added to each well followed by the addition of a 12.5 μl aliquot of a purified Fab. The plate was sealed and incubated for 1 hour at 20° C. with shaking.
(§2) Detection antibodies were prepared by individually conjugating both goat anti-human Kappa light chain polyclonal antibody (K3502-1MG, Sigma-Aldrich) and goat anti-human Lambda light chain polyclonal antibody (L1645-1 mL, Sigma-Aldrich) with Ruthenium (II) tris-bipyridine-(4-methylsulfone)-N-hydroxysuccinimide (SULFO-TAG NHS-ester, Meso Scale Discovery) according to the manufacturer's instructions. TAG-detection antibody at 25 μl was added to each well and allowed to incubate for 1 hour at 20° C. with shaking. Finally, 15 μl of Read Buffer P with Surfactant (Cat # R92PC-1, Meso Scale Discovery) was added to each well. The electrochemiluminescence was measured using a Sector Imager 2400 (Meso Scale Discovery). Data was analyzed by comparing the ECL signals for an antigen to the blank of each well. A signal to blank ratio of 4 or more was considered a “Hit” Fab.
(§3) To confirm a “Hit” from the initial Multispot ECL screening, a Fab concentration dependent titration was carried out to determine the Fab-antigen binding affinity.

In experiment [2] the target is T2, rHuman IGF-1 sR, (IGF-1 sR), CF (Cat# 391-GR) (human, UniProt P08069 31-932).
T2 construct: Bought from R&D Systems; also called insulin-like growth factor-1 soluble receptor
Briefly: Multispot ECL; Fab 32.5 nM. The method, then:
as §1, §2, §3

Experiment [3] concerns the target T3, rHuman HGF R/c-MET/Fc Chimera, CF (Cat# 358-MT/CF) (human, UniProt P08581 25-932).
T3 construct: Bought from R&D Systems; also called HGF R/Fc; hepatocyte growth factor receptor (HGF R/c-Met)
Briefly: Multispot ECL; Fab 32.5 nM. The method, then: as §1, §2, §3

Experiment [4] addresses T4, rHuman Erythropoietin R/Fc Chimera, CF (Cat# 963-ER) (human, UniProt P19235 25-250).
T4 construct: Bought from R&D Systems; also called EPO R/Fc; Epo R/Fc chimera
T4 sequence (looked up): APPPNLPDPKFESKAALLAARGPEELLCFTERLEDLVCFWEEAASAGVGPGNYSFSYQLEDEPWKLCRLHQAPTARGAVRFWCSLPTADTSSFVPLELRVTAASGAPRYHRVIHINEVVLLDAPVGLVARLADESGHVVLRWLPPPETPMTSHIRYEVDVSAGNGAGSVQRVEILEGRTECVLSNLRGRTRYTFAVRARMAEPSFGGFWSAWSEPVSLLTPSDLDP
Briefly: Multispot ECL; Fab 32.5 nM. Here is the method:
as §1, §2, §3

Experiment [5] has as its target T5, Recombinant Human DLL4 (Cat# 1506-D4/CF) (human, UniProt Q9NR61 27-529).
T5 construct: Bought from R&D Systems; also called rHuman DLL4; hDLL4
Briefly: Multispot ECL; Fab 32.5 nM. The method, then:
as §1, §2, §3

Experiment [6] has as its target T6, rHuman Notch-1/Fc Chimera, CF (Cat# 3647-TK) (human, UniProt P46531 19-526).
T6 construct: Bought from R&D Systems
Briefly: Multispot ECL; Fab 32.5 nM. Here is the method: as §1, §2, §3

The target in experiment [7] is T7, rHuman EGF R/Fc Chimera, CF (Cat# 344-ER) (human, UniProt P00533 25-645).
T7 construct: Bought from R&D Systems; also called epidermal growth factor receptor (EGF R)
Briefly: Multispot ECL; Fab 32.5 nM. The method, then:
as §1, §2, §3

Experiment [8] deals with T8, rHuman CD44/Fc Chimera, CF (Cat# 3660-CD) (human, UniProt P16070 21-220).
T8 construct: Bought from R&D Systems
Briefly: Multispot ECL; Fab 32.5 nM. Here is the method: as §1, §2, §3

Experiment [9] concerns the target T1, rHuman ErbB2/Fc Chimera, CF (Cat# …). Briefly: Multispot ECL; Fab 2.0 nM. Here is the method:
as §1, §2, §3

For experiment [10], the target named is T2, rHuman IGF-1 sR, (IGF-1 sR), CF (Cat# …). Briefly: Multispot ECL; Fab 2.0 nM. The method, then: as §1, §2, §3
In experiment [11] the target is T3, rHuman HGF R/c-MET/Fc Chimera, CF (Cat# …). Briefly: Multispot ECL; Fab 2.0 nM. Here is the method: as §1, §2, §3
Experiment [12] has as its target T4, rHuman Erythropoietin R/Fc Chimera, CF …. Briefly: Multispot ECL; Fab 2.0 nM. Here is the method:
as §1, §2, §3

Experiment [13] addresses T5, Recombinant Human DLL4 (Cat# 1506-D4/CF). Briefly: Multispot ECL; Fab 2.0 nM. The method, then:
as §1, §2, §3

Experiment [14] concerns the target T6, rHuman Notch-1/Fc Chimera, CF (Cat# …). Briefly: Multispot ECL; Fab 2.0 nM. Here is the method: as §1, §2, §3
The target of experiment [15] is T7, rHuman EGF R/Fc Chimera, CF (Cat# …). Briefly: Multispot ECL; Fab 2.0 nM. The method, then: as §1, §2, §3
Experiment [16] deals with T8, rHuman CD44/Fc Chimera, CF (Cat# …). Briefly: Multispot ECL; Fab 2.0 nM. Here is the method: as §1, §2, §3
The target of experiment [17] is T3, rHuman HGF R/c-MET/Fc Chimera, CF (Cat# …). Briefly: Multispot ECL; Fab 130 nM. The method, then: as §1, §2, §3
Experiment [18] has as its target T7, rHuman EGF R/Fc Chimera, CF (Cat# …). Briefly: Multispot ECL; Fab 130 nM. Here is the method: as §1, §2, §3
For experiment [19], the target named is T8, rHuman CD44/Fc Chimera, CF (Cat# …). Briefly: Multispot ECL; Fab 130 nM. Here is the method:
as §1, §2, §3

B1: Fab VH1-8_IGHD2-2*01_IGHJ6*01 & L12_IGKJ1*01 (Fab, V domains shown)
VH: QVQLVQSGAEVKKPGASVKVSCKASGYTFTSYDINWVRQATGQGLEWMGWMNPNSGNTGYAQKFQGRVTMTRNTSISTAYMELSSLRSEDTAVYYCARGGYCSSTSCYADYYYYYGMDVWGQGTTVTVSS
VL: not shown
As to B1, the ECL signal in experiment [1] is 556; in experiment [2], 561; in experiment [3] it was 525; in experiment [4], 673; in experiment [5], 2990; in experiment [6], 706. Besides, the ECL signal in [7] worked out at 645; in experiment [8] it was 573; in [9], 382; in [10] it was 367; in experiment [11] it was 356; in experiment [12], 433. Also, the ECL signal in [13] came to 605; in experiment [14], 539; in experiment [15], 424; in [16], 447; in [17], 1880; in experiment [18], 1750. In experiment [19], the ECL signal is 1750.
